Key:
[1] = biological target: DNMT3A^R882H/N879A protein (as used for size-exclusion chromatography) (human); assay: SEC; Superose 6 Increase 10/300 GL, 100 µL of 3 mg/mL protein, 4 °C, 20 mM Hepes pH 7.2, 250 mM NaCl, 5% glycerol, 5 mM DTT; elution volume against molecular weight standards
[2] = biological target: the molecule itself; assay: as above
[3] = biological target: the molecule itself; assay: crystal structure; DNMT3A MTase domain with S-adenosyl-homocysteine; sitting drop vapor diffusion, 0.2-0.4 M potassium sodium tartrate, 4 °C; homotetramer via RD and FF interfaces

| Molecule | binding result [2] | further results |
| --- | --- | --- |
| DNMT3A^R882H/N879A protein (as used for size-exclusion chromatography) (domain or fragment) |  | stoichiometry N [1]: 4 |
| MBP-tagged DNMT3A MTase domain R676K (domain or fragment, human, UniProt Q9Y6K1 628-912, looked up, human DNMT3A MTase domain, residues 628-912; source: E. coli BL21(DE3) RIL, purified; not shown: MBP, N-terminal, kept) AEKRKPIRVLSLFDGIATGLLVLKDLGIQVDRYIASEVCEDSITVGMVKHQGKIMYVGDVRSVTQKHIQEWGPFDLVIGGSPCNDLSIVNPARKGLYEGTGRLFFEFYRLLHDARPKEGDDRPFFWLFENVVAMGVSDKRDISRFLESNPVMIDAKEVSAAHRARYFWGNLPGMNRPLASTVNDKLELQECLEHGRIAKFSKVRTITTRSNSIKQGKDQHFPVFMNEKEDILWCTEMERVFGFPVHYTDVSNMSRLARQRLLGRSWSVPVIRHLFAPLKEYFACV | binds |  |
| MBP-tagged DNMT3A MTase domain M674T/R676K (domain or fragment, human, UniProt Q9Y6K1 628-912, looked up, human DNMT3A MTase domain, residues 628-912; source: E. coli BL21(DE3) RIL, purified; not shown: MBP, N-terminal, kept) AEKRKPIRVLSLFDGIATGLLVLKDLGIQVDRYIASEVCEDSITVGTVKHQGKIMYVGDVRSVTQKHIQEWGPFDLVIGGSPCNDLSIVNPARKGLYEGTGRLFFEFYRLLHDARPKEGDDRPFFWLFENVVAMGVSDKRDISRFLESNPVMIDAKEVSAAHRARYFWGNLPGMNRPLASTVNDKLELQECLEHGRIAKFSKVRTITTRSNSIKQGKDQHFPVFMNEKEDILWCTEMERVFGFPVHYTDVSNMSRLARQRLLGRSWSVPVIRHLFAPLKEYFACV | binds |  |
| DNMT3A^R882H/N879A (crystallised form) (domain or fragment, human, human DNMT3A; the abstract speaks of crystal structures of the methyltransferase domain; The crystallisation methods name only R882H/R676K and R882C/R676K as mutants; probably residues 628-912 like the others; also called DNMT3A^N879A/R882H; N879A/R882H-mutated DNMT3A; source: E. coli BL21(DE3) RIL, purified) AEKRKPIRVLSLFDGIATGLLVLKDLGIQVDRYIASEVCEDSITVGMVRHQGKIMYVGDVRSVTQKHIQEWGPFDLVIGGSPCNDLSIVNPARKGLYEGTGRLFFEFYRLLHDARPKEGDDRPFFWLFENVVAMGVSDKRDISRFLESNPVMIDAKEVSAAHRARYFWGNLPGMNRPLASTVNDKLELQECLEHGRIAKFSKVRTITTRSNSIKQGKDQHFPVFMNEKEDILWCTEMERVFGFPVHYTDVSAMSHLARQRLLGRSWSVPVIRHLFAPLKEYFACV |  | stoichiometry N [3]: 4 |

— paper PMC11006857, “Structure-guided functional suppression of AML-associated DNMT3A hotspot mutations” (Nature Communications, 2024)
